This assay relates to FZD6–FZD6 dimer. As to the kind of experiment: dynamic FCCS of V5-FZD6-mCherry/FZD6-GFP. The class given is cell-based, human. Conditions: HEK293. Here is the method:
HEK293 cells were grown over-night in Lab-Tek eight-well chamber-glass bottom slides (Nunc, Thermo Scientific, Langensbold, Germany) coated with matrigel. Data were acquired in 10 s intervals. Collection intervals containing abnormal fluorescence peaks (presumably resulting from aggregates or ROIs where the overall fluorescence was decaying, putatively due to membrane movements) were discarded from the overall analysis. The total included measurements time ranged from 20 to 80 s per cell. Measurements were only undertaken on cells where the fluorescence was well localized to the cell surface membrane, as judged by visual inspection in the wide-field and confocal mode. Autofluorescence, as well as fluorescence from both GFP and mCherry in the intracellular region was negligible. The number of fluorescent receptors assessed in each experiment varied from 10–1000 receptors per µm^2 in each HEK293 cell.
Dynamic FCCS measurements of WNT-dependent dissociation and re-association of FZD (Fig. 5c–e) were performed on an FCS/FCCS-equipped Zeiss 780 confocal microscope (Zeiss, Jena, Germany). The instrument details were the same as those of the Confocor 3 described above, with the exception that 561 nm excitation was used for excitation of mCherry, that GFP emission was detected from 500 to 550 nm, and that mCherry emission was detected from 600 to 690 nm. Experiments on cells were performed as described above, with each measurement point consisting of 3–6 measurements of 10 s each. […]
Assuming that M is FZD6-GFP (green) and N is FZD6-mCherry (red) and that all FZD6 form dimers, then the probability of finding a green–red FZD6 dimer is pgr=2×M×N/(M+N)(M+N-1)≈2×M×N/M+N^2=(2cgg+cgr)(2crr+cgr)/2cgg+cgr+crr^2 , where c gg, c gr, and c rr are the corresponding concentrations of the only green FZD6 dimers, the red and green FZD6 dimers and the only red FZD6 dimers. […] From the experiments, we determine the concentrations for c gg, c gr and c rr and compare the concentrations c gr with the c′gr for each cell to get an estimation of how close the model is to experimental data: cgr/c′gr=2cgr×(cgg+cgr+crr)/((2cgg+cgr)(2crr+cgr)) Analysis of the dynamic FCCS measurements of WNT-dependent dissociation and re-association of FZD6: Auto-correlation and cross-correlation curves were analyzed as described above and the amplitudes G g(0)−1, G r(0)−1, and G cc(0)−1 from each of the more than 300 measurements of 10 s duration were estimated by fitting to theoretical models. […]
With the settings described above for detection of emission, the crosstalk from the GFP channel to the mCherry channel, defined as the intensity detected in the mCherry channel divided by the intensity detected in the GFP channel, I r/I g, for a cell expressing only FZD-GFP, was 0.051 or 5.1 %. […]

The mark [1] stands for this setting: representative cell, G cc normalized to green auto-correlation amplitude, WNT-5A.

B1: WNT-5A: recombinant carrier-free WNT-5A (R&D Systems), agonist for FZDs (protein, UniProt P41221 62-380, looked up)
Protein Wnt-5a: IIGAQPLCSQLAGLSQGQKKLCHLYQDHMQYIGEGAKTGIKECQYQFRHRRWNCSTVDNTSVFGRVMQIGSRETAFTYAVSAAGVVNAMSRACREGELSTCGCSRAARPKDLPRDWLWGGCGDNIDYGYRFAKEFVDARERERIHAKGSYESARILMNLHNNEAGRRTVYNLADVACKCHGVSGSCSLKTCWLQLADFRKVGDALKEKYDSAAAMRLNSRGKLVQVNSRFNSPTTQDLVYIDPSPDYCVRNESTGSLGTQGRLCNKTSEGMDGCELMCCGRGYDQFKTVQTERCHCKFHWCCYVKCKKCTEIVDQFVCK
Regarding B1, where the note is “WNT-5A 300 ng ml^−1”, the “FZD6–FZD6 interaction upon stimulation (FCCS)” value is “a transient decrease in FZD6–FZD6 interaction”. Moreover, under setting [1], the “red molecules also green at maximal dimer dissociation” value is 6% and the “red molecules also green upon dimer re-association” value stood at 21%.

These data come from publication PMC5548745, “Agonist-induced dimer dissociation as a macromolecular step in G protein-coupled receptor signaling” (Nature Communications, 2017).
